Laboratory results as given in publication doi:10.1101/2020.05.09.085852 (bioRxiv, 2020).

Target: the molecule itself
Assay: crystal structure

B1: YukC413.strep (domain or fragment, B. subtilis 168, UniProt P71070 1-413, looked up)
chain: MSGEQKSYLENQLEAVAEKTDAGYTFTFQREKIKLLDGLEANVIKDINPFFHKEIDVTDDEVIITIQPPSSYKAFRFMKAKDKKSKWQFAYQLVQAVQQHNLSRLNLIVAPENIVFDKGLTPYFLHYGVKESIPPYERDEERVWQELKAAAALAVDGAFAFEDYLKFNETLTFSAEAKAILDAESYDDLLELIQTHIDELEAKAKTYIHIPRKKWNIQRYIGLGLIVLLVPALIYSMYALFFAQPKHQAIVDSNRAFLNKQYSEVISTLSKYDAESLPESVQYQLATSYVEVENLGSAKTKNIENNLVTLQSDPQHFLYWIDYGRGEYKEAISIGRKLEYNDYIYFALAKYKQQLLSEDTNDEDIQKELDSVNSELEKAQKERQENKQSNSETSLVDTSEEQTQTDEEKQAEE
In the case of B1, the “stoichiometry N” value is reported as 2.
